The text below walks through data of patent US20240042051A1 (Novartis, published 2024).

The target of test [1] is T1, Human CD48 (recombinant, humanCD48 aa29-220) (human, UniProt P09326 29-220).
T1 construct: SPR analyte in solution; also called analyte human CD48; not shown: C-terminal tag (hFc1P, APP6-Avi or His)
T1 sequence: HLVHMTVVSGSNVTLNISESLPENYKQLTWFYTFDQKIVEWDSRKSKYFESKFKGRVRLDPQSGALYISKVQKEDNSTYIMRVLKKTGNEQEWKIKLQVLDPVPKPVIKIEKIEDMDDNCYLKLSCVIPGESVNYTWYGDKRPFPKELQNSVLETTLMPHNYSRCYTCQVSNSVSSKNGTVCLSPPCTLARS
The test can be described thus: SPR Biacore T200, antibody captured on protein A chip, CD48 as analyte, 25 °C, 1:1 model. As to the method:
The anti-CD48 antibodies were diluted at 5 μg/ml and injected on flow cells 2 and 4 for 20 sec at 10 μl/min. Capture level for all antibodies was 370-440 RU. Flow cells 1 and 3 were left blank (no antibody captured) and used as a reference surface. Human and cynomolgus CD48 served as analytes in solution. […] After each cycle of antibody capture and analyte injection, the chip surface was regenerated with 10 mM Glycine-HCl pH 1.5 (Cytiva, ordering #BR100354) for 2×30 s at a flow rate of 50 μl/min. Three runs with duplicate measurements and buffer blank injections were performed. Measurements were executed at 25° C. and data collected at a rate of 10 Hz.
[…] The raw data were double referenced, i.e. the response of the measuring flow cells was corrected for the response of the reference flow cells (no antibody captured), and in a second step the response of a blank injection (buffer) was subtracted. Finally, the sensorgrams were fitted by applying a 1:1 interaction model with a constant fit of RI (0) and a global fit for Rₘₐₓ. Kinetic rate constants (kₐ, kd) and equilibrium dissociation constants (KD) were calculated. Data were processed separately for each run. The generated values were used to calculate average values and standard deviations of the respective equilibrium dissociation constants and the kinetic rate constants.
For orientation: In SPR one partner is held on a chip, and binding of the other changes the refractive index at the surface.

For test [2], the target named is T2, hCD48EC:mouse-Ig construct #2248 (ENYKQ modified into GSSKQ) (human, UniProt P09326 27-220, limits assumed).
T2 construct: extracellular domain; not shown: mouse IgG1 part of the fusion
T2 sequence (looked up): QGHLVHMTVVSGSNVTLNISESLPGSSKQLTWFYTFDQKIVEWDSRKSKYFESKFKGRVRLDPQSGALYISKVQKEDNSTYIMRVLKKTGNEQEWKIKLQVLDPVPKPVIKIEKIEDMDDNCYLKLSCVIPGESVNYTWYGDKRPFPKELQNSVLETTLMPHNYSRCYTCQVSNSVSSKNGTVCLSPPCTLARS
The test can be described thus: ELISA, HEK293T culture supernatant (1:10) with the CD48-mouse Ig construct, antibody at 25, 250 and 500 ng/mL, detection goat anti-mouse IgG (H+L) HRP, Mean OD450-570. The source says: Non-mutated CD48-mouse IgG fusion peptide served as positive control and non-transfected cell supernatant as negative control.
(In an ELISA, binding on a coated surface is turned into a signal by an enzyme label.)

As a reminder, the Kd is a measure of binding affinity in units of concentration. One may read the koff as the rate constant with which the complex falls apart. What is called kon is the rate constant with which the complex forms.

B1: NY920 (antibody, human IgG1, kappa, V domains shown)
VH: EVQLLESGGGLVQPGGSLRLSCAASGFTFSSFAMSWVRQAPGKGLEWVSAISGFGGSTYYADSVKGRFTISRDNSKNTLYLQMNSLRAEDTAVYYCARQFWEDQPFYFDYWGQGTLVTVSS
VL: not shown
notes: also called anti-CD48 antibody NY920; candidate antibody NY920
For the molecule B1, in test [1], the Kd was found to be 10 nM, the koff came out at 0.00074 s⁻¹ and the kon turned out to be 72000 M⁻¹ s⁻¹.

B2: NY938 (antibody, human IgG1, kappa, V domains shown)
VH: QVQLVQSGAEVKKPGASVKVSCKASGYTFTEYTMHWVRQAPGQGLEWMGGINPDTGDTSYNQKFTGRATLTVDKSTSTAYMELSSLRSEDTAVYYCARAQFWTTPRFAYWGQGTLVTVSS
VL: DIQMTQSPSSLSASVGDRVTITCKASQDVGTAVAWYQQKPGKVPKLLIYWASTRHTGVPSRFSGSGSGTDFTLTISSLQPEDVATYYCQQYSTYPITFGQGTKLEIKR
notes: also called anti-CD48 antibody NY938; NY938 IgG
With B2, in test [1], the Kd came to 0.5 nM, the koff worked out at 0.00013 s⁻¹ and the kon amounted to 250000 M⁻¹ s⁻¹.

B3: humanized CD48A (antibody, V domains shown)
VH: QVQLVQSGSELKKPGASVKVSCKASGYTFTDFGMNWVRQAPGQGLEWMGWINTFTGEPSYGNVFKGRFVFSLDTSVSTAYLQISSLKAEDTAVYYCARRHGNGNVFDSWGQGTLVTVSS
VL: EIVLTQSPDFQSVTPKEKVTITCRASQSIGSNIHWYQQKPDQSPKLLIKYTSESISGVPSRFSGSGSGTDFTLTINSLEAEDAATYYCQQSNSWPLTFGGGTKVEIKR
notes: Murine CD48A is clone MEM-102; also called control antibody CD48A
B3: the binding result in test [2] was “no binding (tested: 500 ng/mL)”.
